Target: human PD-1 and human TIGIT co-expressed on Jurkat cells (Jurkat/PD-1/TIGIT cells) (human)
Assay: flow cytometry, Jurkat/PD-1/TIGIT cells

Chain of human PD-1 and human TIGIT co-expressed on Jurkat cells (Jurkat/PD-1/TIGIT cells) (human) (chain, as listed by the source, chain 1 of 2): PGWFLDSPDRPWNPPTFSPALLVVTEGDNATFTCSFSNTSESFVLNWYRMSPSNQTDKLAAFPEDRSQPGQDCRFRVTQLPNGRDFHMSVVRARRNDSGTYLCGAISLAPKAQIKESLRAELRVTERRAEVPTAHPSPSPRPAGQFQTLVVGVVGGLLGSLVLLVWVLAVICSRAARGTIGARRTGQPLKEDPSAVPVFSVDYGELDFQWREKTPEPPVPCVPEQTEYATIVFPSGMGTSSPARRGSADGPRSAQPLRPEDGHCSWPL
Chain of human PD-1 and human TIGIT co-expressed on Jurkat cells (Jurkat/PD-1/TIGIT cells) (human) (chain, as listed by the source, chain 2 of 2): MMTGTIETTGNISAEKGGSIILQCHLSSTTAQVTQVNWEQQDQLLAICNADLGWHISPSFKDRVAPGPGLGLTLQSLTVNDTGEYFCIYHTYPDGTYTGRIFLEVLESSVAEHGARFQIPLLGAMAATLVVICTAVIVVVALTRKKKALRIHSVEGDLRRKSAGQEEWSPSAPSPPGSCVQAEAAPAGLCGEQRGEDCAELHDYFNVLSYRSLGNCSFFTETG

B1: variant CD155 IgV-Fc P18S/S65W/S67A/L104Q/G111R (Fc fusion)
chain: WPPPGTGDVVVQAPTQVSGFLGDSVTLPCYLQVPNMEVTHVSQLTWARHGESGSMAVFHQTQGPWYAESKRLEFVAARLGAELRNASLRMFGLRVEDEGNYTCQFVTFPQRSRSVDIWLRVLAAAEPKSSDKTHTCPPCPAPELLGGPSVFLFPPKPKDTLMISRTPEVTCVVVDVSHEDPEVKFNWYVDGVEVHNAKTKPCEEQYGSTYRCVSVLTVLHQDWLNGKEYKCKVSNKALPAPIEKTISKAKGQPREPQVYTLPPSREEMTKNQVSLTCLVKGFYPSDIAVEWESNGQPENNYKTTPPVLDSDGSFFLYSKLTVDKSRWQQGNVFSCSVMHEALHNHYTQKSLSLSPGK
- MFI at 6.25 nM: 4890 MFI
